Laboratory results taken from patent publication US7700101B2, “Reagents and method for modulating Dkk-mediated interactions” (Wyeth, priority 2001, dated 2010).
“Also recorded” adds a separate entry of the source. Like-named read-outs stand apart in the source and are kept apart here.

Columns and labels:
[1] = tested on: HBM-mediated Wnt signaling; test: Xenopus embryo assay, hDkk-1 modulation of HBM+Wnt5a signaling; format: in vivo; conditions: hDkk-1 250 pg, FIG. 11
Protocol: (§1) mRNA for microinjection into Xenopus embryos is generated by in vitro transcription using the CDNA constructs in the pCS2^+ vector described above as template. RNA is synthesized using the Ambion mMessage mMachine high yield capped RNA transcription kit (Cat. #1340) following the manufacturer's specifications for the Sp6 polymerase reactions. RNA products were brought up to a final volume of 50 μl in sterile, glass-distilled water and purified over Quick Spin-Columns for Radiolabelled RNA Purification G50-Sephadex (Roche, Cat. #1274015) following the manufacturer's specifications. The resulting eluate was finally extracted with phenol:chloroform:isoamyl alcohol and isopropanol precipitated using standard protocols (Sambrook et al., 1989). Final RNA volumes were approximately 50 μl. RNA concentration was determined by absorbance values at 260 nm and 280 nm. RNA integrity was visualized by ethidium bromide staining of denaturing (formaldehyde) agarose gel electrophoresis (Sambrook et al., 1989). Various amounts of RNA (2 pg to 1 ng) are injected into the ventral blastomere of the 4- or 8-cell Xenopus embryo. These protocols are described in Moon et al., Technique-J. of Methods in Cell and Mol. Biol. 1: 76-89 (1989), and Peng, Meth. Cell. Biol. 36: 657-62 (1991). […]

[2] = tested on: Zmax/LRP5-mediated Wnt signaling; test: Xenopus embryo assay, hDkk-1 modulation of Zmax/LRP5+Wnt5a signaling; format: in vivo; conditions: hDkk-1 250 pg, FIG. 11
Protocol: as §1

LRP5 [3] = molecular target: T1, LRP5 (Homo sapiens, UniProt O75197); test: Cell-based TCF reporter high-throughput assay, LRP5 cDNA; conditions: U2OS cells, Wnt1 or Wnt3a/Wnt1 co-transfected, FIG. 20
T1 construct: Site-directed mutants of LRP5 were generated in the full-length human LRP5 cDNA; expressed in transfected cells; host or cells: HOB-03-CE6 osteoblastic cells; U2OS osteosarcoma cells; HEK293
T1 sequence (O75197 32-1615): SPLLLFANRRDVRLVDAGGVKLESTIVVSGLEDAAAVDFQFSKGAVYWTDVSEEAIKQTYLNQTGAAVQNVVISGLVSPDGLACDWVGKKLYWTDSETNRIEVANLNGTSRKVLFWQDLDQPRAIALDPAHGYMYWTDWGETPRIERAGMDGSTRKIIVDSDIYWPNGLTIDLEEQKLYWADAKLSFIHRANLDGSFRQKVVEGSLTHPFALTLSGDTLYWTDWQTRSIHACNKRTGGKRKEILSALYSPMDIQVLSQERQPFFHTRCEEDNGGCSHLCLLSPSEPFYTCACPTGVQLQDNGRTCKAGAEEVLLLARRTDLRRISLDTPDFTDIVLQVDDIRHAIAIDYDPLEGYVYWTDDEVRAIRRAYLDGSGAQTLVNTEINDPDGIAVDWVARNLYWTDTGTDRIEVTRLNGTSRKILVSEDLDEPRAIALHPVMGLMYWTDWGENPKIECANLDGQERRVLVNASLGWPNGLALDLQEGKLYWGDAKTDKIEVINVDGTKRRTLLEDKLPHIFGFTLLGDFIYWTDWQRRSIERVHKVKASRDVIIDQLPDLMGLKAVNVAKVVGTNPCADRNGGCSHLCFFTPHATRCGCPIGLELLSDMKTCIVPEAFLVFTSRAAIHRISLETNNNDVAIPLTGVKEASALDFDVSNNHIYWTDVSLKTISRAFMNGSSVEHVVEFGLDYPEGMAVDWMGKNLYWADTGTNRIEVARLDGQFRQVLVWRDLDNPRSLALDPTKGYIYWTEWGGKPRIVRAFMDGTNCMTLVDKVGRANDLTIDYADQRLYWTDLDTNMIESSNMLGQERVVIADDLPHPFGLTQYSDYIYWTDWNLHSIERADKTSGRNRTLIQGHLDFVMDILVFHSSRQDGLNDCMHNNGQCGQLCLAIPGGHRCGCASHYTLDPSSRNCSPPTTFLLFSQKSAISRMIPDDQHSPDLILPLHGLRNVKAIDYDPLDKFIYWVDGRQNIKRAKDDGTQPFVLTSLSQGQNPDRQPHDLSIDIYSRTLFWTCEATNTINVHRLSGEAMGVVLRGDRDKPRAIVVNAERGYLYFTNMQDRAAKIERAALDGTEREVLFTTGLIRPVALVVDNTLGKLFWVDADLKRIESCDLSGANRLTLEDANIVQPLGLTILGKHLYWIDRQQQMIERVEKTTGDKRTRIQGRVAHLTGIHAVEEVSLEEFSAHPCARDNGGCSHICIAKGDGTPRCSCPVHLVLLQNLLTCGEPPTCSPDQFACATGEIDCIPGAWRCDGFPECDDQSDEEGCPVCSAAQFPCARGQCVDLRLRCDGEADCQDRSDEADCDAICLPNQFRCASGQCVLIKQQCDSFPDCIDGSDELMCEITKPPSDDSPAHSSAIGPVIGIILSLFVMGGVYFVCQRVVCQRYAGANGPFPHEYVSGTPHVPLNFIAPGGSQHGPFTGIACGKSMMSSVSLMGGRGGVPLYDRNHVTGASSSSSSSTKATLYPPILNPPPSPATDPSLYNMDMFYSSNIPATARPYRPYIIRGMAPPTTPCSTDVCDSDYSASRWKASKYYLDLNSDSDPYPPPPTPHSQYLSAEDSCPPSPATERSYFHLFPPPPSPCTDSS
From the text: (§2) To develop a high throughput assay, the TCF-luciferase assay described in Example 7 was modified utilizing low level expression of endogenous LRP5/6 in U2OS and HEK293 cells. However, HOB-03-CE6 cells and any other cells which show a differential response to Dkk depending on whether LRP5, LRP6 or HBM are expressed. Using U2OS (human osteosarcoma) and HEK293 (ATCC) cells, the TCF-luciferase and tk-Renilla reporter element constructs were co-transfected along with Wnt3a/1 and Dkk. Wnt3a alone, by using endogenous LRP5/6, was able to stimulate TCF reporter gene activation. When Dkk, is co-transfected with Wnt3a/Wnt 1 and reporters (TCF-luci and tk-Renilla), DEkk represses reporter element activity. In addition, the TCF-luci signal is activated by Wnt3a/Wnt1 can be repressed by the addition of Dkk-enriched conditioned media to the cells containing Wnt3a/Wnt1 and reporters.
(§3) The Dkk-mediated repression of the reporter is dependent upon the concentration of transfected Dkk cDNA or on the amount of Dkk-conditioned media added. In addition, the Dkk-mediated reporter suppression can be altered by the co-transfection of LRP5, LRP6, and HBM cDNAs in the U2OS or HEK293 cells. In general, U2OS cells show greater sensitivity to Dkk-mediated reporter suppression than that in HEK-293 cells. […]

LRP5 [4] = molecular target: T1, LRP5; test: TCF-luciferase assay in HOB-03-CE6 cells, LRP5; format: cell-based
Protocol: HOB-03-CE6 osteoblastic cells developed by Wyeth Ayerst (Philadelphia, Pa.) were seeded into 24-well plates at 150,000 cells per well in 1 ml of the growth media (D-MEM/F12 phenol red-free) containing 10% (v/v) heat-inactivated FBS, 1×penicillin streptomycin, and 1X Glutamax-1, and incubated overnight at 34° C. The following day, the cells were transfected using Lipofectamine 2000® (as described by the manufacturer, Invitrogen) in OptiMEM (Invitrogen) with 0.35 μg/well of LRP5, HBM, or control plasmid DNA (empty vector pcDNA3.1) and either Wnt1 or Wnt3 a plasmid DNA. Similar experiments were performed with LRP6 plasmid DNA (0.35 μg/well) or a control pEDdpc4 empty vector. […] All wells were transfected with 0.025 μg/well of CMV beta-galactosidase plasmid DNA and 0.35 μg/well 16X TCF(ASyluciferase reporter DNA (developed by Ramesh Bhat, Wyeth-Ayerst (Philadelphia, Pa.)). After 4 hours of incubation, the cells were rinsed and 1 ml of fresh growth media was added to each well. The cells were cultured overnight at 34° C., followed by a wash and a change of media. Cells were cultured for an additional 18-24 hours at 37° C. Cells were then lysed with 50 μl/well of 1X lysis buffer. The extracts were assayed for beta-galactosidase activity (Galacto Reaction Buffer Diluent & Light Emission Accelerator, Tropix) using 5 μl extract+50 μl beta-galactosidase diluent and luciferase activity (Luciferase Assay Reagent, Promega) using 20 μl extract.

HBM = molecular target: T2, HBM (Homo sapiens, UniProt O75197, G171V); test: Cell-based TCF reporter high-throughput assay, HBM cDNA; conditions: U2OS cells, Wnt1 or Wnt3a/Wnt1 co-transfected, FIG. 20
T2 construct: Full length Zmax/LRP5 and HBM ORF cDNA; expressed in transfected cells; host or cells: HOB-03-CE6 osteoblastic cells; U2OS osteosarcoma cells; HEK293
T2 sequence (O75197 32-1615 G171V): as the sequence (O75197 32-1615) above, with G140V counted along it
From the text: as §2, §3

LRP6 = LRP6 (Homo sapiens, UniProt O75581); conditions: cited from earlier work
Sequence of LRP6 (O75581 20-1613, species assumed): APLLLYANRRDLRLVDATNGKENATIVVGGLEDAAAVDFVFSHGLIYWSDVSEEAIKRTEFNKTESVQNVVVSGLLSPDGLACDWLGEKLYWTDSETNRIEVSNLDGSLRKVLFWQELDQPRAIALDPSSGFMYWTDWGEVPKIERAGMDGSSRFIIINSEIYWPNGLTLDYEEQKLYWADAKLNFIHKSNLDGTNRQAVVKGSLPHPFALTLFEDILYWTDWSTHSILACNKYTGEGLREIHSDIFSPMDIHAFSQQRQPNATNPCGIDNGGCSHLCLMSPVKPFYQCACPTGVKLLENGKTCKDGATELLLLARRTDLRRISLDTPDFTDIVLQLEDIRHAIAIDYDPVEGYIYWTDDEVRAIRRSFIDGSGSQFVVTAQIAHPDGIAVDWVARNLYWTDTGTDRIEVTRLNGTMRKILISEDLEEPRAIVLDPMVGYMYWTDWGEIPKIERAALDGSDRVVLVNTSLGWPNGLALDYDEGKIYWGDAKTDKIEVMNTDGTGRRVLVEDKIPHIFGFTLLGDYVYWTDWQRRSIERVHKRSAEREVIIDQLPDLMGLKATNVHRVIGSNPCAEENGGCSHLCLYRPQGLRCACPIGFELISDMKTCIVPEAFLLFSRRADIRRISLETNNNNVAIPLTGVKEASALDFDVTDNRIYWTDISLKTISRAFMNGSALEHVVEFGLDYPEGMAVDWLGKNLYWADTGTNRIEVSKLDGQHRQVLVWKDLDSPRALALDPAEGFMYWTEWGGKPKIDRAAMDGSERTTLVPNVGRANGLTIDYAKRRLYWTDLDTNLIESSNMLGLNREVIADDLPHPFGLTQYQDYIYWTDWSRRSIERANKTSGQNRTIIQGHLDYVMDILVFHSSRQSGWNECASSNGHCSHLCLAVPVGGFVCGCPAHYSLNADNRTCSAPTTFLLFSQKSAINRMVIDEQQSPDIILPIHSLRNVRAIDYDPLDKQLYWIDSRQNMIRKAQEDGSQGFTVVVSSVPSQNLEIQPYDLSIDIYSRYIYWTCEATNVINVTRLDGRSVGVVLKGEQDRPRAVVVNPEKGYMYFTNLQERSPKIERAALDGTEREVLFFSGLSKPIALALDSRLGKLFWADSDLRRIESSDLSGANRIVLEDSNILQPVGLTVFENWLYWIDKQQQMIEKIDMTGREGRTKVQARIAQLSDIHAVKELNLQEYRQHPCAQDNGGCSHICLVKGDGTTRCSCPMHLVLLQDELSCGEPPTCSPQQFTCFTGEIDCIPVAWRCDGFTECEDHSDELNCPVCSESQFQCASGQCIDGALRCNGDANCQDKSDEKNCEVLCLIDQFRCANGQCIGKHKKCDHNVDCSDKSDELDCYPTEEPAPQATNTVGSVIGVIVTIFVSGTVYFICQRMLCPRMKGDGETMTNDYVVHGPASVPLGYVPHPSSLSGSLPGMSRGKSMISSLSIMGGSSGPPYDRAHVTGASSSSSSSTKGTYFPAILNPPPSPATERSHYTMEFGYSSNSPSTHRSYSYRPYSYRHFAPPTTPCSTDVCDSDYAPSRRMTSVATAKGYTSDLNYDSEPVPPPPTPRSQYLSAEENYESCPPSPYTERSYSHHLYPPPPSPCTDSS

Substance: Dkk-1: Dickkopf-1 protein, antagonist of the Wnt pathway; expressed from human cDNA (RNA or plasmid)
- repression of HBM-mediated Wnt signaling [1]: unable to repress
- repression of Zmax/LRP5-mediated Wnt signaling [2]: repressed
- Dkk-mediated repression of LRP5 signaling (TCF reporter) (LRP5 [3]): represses
- Dkk-mediated repression of LRP5 signaling (TCF reporter) (LRP5 [3]; listed as Dkk1): moderate
- LRP5/Wnt1 mediated TCF-luciferase activity (LRP5 [4]; Wnt1, FIG. 14): significantly antagonized TCF-luciferase activity; also recorded: had no effect on LRP5 or HBM mediated TCF-luciferase activity
- LRP5/Wnt3a mediated TCF-luciferase activity (LRP5 [4]; Wnt3a, FIG. 15): able to antagonize LRP5/Wnt3a
- Dkk-mediated repression of HBM signaling (TCF reporter) (HBM): not efficiently inhibited; also recorded: little or no effect
- Dkk-mediated repression of HBM signaling (TCF reporter) (HBM; listed as Dkk1): least
- Kd (LRP6; Bafico et al., 125I-labeled Dkk-1): 390 pM
- Kd (LRP6; Mao et al., classical biochemical ligand-receptor studies): 340 pM
